Residue numbers refer to the chain shown, from its start. Names and notes keep the numbering of the source. One block for each binder: values may come before it.
Columns and labels:
human PD-1-His = target: T1, human PD-1-His (human, UniProt Q15116 25-167, limits assumed); assay: Octet BLI; antibody captured on anti-human Fc (AHC) biosensors, dipped into PD-1-His
T1 construct: not shown: His tag

PD-1-His = target: T2, PD-1-His (UniProt Q15116 25-167, limits assumed); assay: Octet affinity screen; bivalent IgG1 format
T2 construct: Captured on HIS1K biosensors; not shown: His tag
T2 sequence (Q15116 25-167 limits assumed): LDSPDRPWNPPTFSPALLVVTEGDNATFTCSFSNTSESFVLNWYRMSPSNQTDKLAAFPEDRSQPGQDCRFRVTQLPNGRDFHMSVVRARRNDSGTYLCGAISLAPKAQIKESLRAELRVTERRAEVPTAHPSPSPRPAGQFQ
Source text: We engineered affinity optimized variants of mAb C. A library of variants was constructed by standard mutagenesis to introduce point mutations into the variable heavy or variable light regions of XENP28536. Illustrative sequences are depicted in FIG. 70A-FIG. 70I (variable domain sequences).

T1 sequence (Q15116 25-167 limits assumed): as above

binding result (human PD-1-His): binds
B1: XENP28536 (antibody, human IgG1, kappa, V domains shown)
VH: EVQLVESGGGLVQPGGSLRLSCAASGFTFSSFGMHWVRQAPGKGLEWVSYISSGSSIIYYADSVKGRFTISRDNAKNSLYLQMNSLRAEDTAVYYCARGGRLVWSPDYWGQGTLVTVSS
VL: DIVMTQSPDSLAVSLGERATINCKSSQSLLNSGNQKNYLTWYQQKPGQPPKLLIYWASTRESGVPDRFTGSGSGTDFTLTISSLQAEDVAVYYCQNDYSYPFTFGSGTKLEIKR
notes: Format is bivalent human IgG1 with E233P/L234V/L235A/G236del/S267K; also called mAb C; mAb C[PD-1]_H1L1

fold improved affinity over WT (mAb C[PD-1]_H1L1) (PD-1-His): > 2 fold
B2: mAb C[PD-1]_H1_L1.1 (antibody, IgG1, V domains shown)
VH: B1 VH
VL: DIVMTQSPDSLAVSLGERATINCKSSQSLLHSGNQKNYLTWYQQKPGQPPKLLIYWASTRESGVPDRFTGSGSGTDFTLTISSLQAEDVAVYYCQNDYSYPFTFGSGTKLEIK

fold improved affinity over WT (mAb C[PD-1]_H1L1) (PD-1-His): > 2 fold
B3: mab_C[PD-1]_H1_L1.3 (antibody, IgG1, V domains shown)
VH: B1 VH
VL: B2 VL with H31S

Source: US20210355185A1 (Xencor, published 2021)
